For one substance, Kd results are on record in PMC8654305.

The target of the assay is recombinant N-terminal His6-tagged GlgB (Synechocystis sp. PCC 6803) (UniProt P52981). As to the kind of experiment: MST.
Chain of recombinant N-terminal His6-tagged GlgB (Synechocystis sp. PCC 6803) (P52981 whole entry): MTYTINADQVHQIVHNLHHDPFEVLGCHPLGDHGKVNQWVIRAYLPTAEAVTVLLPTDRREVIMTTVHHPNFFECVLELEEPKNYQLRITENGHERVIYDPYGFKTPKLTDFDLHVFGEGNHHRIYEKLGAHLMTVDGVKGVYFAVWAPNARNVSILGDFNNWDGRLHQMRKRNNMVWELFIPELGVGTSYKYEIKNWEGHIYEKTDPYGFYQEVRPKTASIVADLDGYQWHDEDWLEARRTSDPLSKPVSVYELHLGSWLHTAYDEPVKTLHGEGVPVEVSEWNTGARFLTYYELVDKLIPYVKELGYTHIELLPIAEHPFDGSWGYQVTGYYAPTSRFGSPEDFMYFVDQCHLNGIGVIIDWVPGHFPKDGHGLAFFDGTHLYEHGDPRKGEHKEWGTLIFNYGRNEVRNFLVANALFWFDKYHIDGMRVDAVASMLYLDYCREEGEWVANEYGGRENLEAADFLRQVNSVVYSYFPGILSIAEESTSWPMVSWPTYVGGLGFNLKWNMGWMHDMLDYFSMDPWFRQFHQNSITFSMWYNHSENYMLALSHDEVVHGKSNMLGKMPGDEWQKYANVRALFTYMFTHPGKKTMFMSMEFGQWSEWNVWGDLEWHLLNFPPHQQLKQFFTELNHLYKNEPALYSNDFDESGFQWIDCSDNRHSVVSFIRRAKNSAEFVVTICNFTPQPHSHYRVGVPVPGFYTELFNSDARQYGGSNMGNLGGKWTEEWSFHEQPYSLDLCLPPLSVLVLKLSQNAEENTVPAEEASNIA

What is called Kd is the free concentration of one partner at which half of the binding sites on the other are occupied at equilibrium, for simple one-to-one binding. With “recombinant C-terminal StrepII-tagged ScSbtB (SbtB from Synechocystis sp. PCC 6803) (from UniProt P73954 1-110) (natural protein)”, the Kd came out at 220 nM.
